# Laboratory results published in patent US20220220200A1.
# Assays:
# [1] = biological target: CD19 on the cell surface (native CD19 antigen) (human) (UniProt P15391); test: flow cytometry, phage clone on K562-CD19 cells (CD19-positive)
# [2] = biological target: CD19 on the cell surface (native CD19 antigen) (human) (UniProt P15391); test: flow cytometry, phage clone on Raji cells (CD19-positive)
# [3] = biological target: CD19 on the cell surface (native CD19 antigen) (human) (UniProt P15391); test: flow cytometry, phage clone on JVM-2 cells (CD19-positive)
# CD19 on the cell surface (native CD19 antigen) (human), sequence (P15391 20-556): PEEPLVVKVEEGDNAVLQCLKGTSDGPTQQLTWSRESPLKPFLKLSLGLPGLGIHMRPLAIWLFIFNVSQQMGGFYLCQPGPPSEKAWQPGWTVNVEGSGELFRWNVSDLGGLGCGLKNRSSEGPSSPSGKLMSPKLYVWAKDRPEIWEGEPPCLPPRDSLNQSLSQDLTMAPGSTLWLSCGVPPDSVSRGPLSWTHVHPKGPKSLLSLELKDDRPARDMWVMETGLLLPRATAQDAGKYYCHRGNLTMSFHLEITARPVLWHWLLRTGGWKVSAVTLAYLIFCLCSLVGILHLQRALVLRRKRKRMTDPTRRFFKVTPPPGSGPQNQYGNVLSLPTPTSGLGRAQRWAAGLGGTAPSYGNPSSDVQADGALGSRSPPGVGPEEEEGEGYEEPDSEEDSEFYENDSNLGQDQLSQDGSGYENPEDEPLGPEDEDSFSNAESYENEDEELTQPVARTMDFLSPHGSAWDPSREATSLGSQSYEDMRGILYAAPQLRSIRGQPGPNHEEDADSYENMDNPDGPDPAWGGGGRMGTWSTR
substance,measurement,setting,value
FMC-63 (humanized mouse anti-human CD19 phage antibody clone) (scFv),MFI,[1],38.1
same,MFI,[2],55.8
same,MFI,[3],22.4
